Where “and” joins values, the source holds several entries; their conditions need not be identical. Identical values can stand only once.
What was measured:
[1] = molecular target: T1, "Non-linked" human IL-23 (human p40 coexpressed in 293T cells with human p19:FLAG-tag peptide) (human, UniProt P29460 23-328); assay: cell-based or functional assay
T1 sequence 1: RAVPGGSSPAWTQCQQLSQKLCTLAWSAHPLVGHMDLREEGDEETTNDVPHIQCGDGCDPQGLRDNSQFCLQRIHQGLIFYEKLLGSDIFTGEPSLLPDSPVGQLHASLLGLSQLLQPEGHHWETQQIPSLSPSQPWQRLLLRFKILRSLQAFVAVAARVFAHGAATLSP
T1 sequence 2: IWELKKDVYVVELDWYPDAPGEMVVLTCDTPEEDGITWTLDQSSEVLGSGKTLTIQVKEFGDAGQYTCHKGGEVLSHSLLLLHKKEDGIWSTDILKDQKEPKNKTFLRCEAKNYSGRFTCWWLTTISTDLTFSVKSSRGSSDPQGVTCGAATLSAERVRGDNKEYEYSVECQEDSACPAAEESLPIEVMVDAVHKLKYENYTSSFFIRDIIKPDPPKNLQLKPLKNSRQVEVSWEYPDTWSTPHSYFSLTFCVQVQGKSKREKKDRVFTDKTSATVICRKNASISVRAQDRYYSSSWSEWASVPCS

[2] = molecular target: T2, non-tagged, non-linked native human IL-23p19/p40 coexpressed in SF9 cells (eBioscience CAT No. 34-8239) (human, UniProt P29460 23-328); assay: cell-based or functional assay
T2 sequence 1: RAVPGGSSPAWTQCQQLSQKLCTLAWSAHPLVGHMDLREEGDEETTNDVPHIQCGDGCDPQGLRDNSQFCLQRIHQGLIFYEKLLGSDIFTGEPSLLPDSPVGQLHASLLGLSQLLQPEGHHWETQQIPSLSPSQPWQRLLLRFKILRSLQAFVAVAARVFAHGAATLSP
T2 sequence 2: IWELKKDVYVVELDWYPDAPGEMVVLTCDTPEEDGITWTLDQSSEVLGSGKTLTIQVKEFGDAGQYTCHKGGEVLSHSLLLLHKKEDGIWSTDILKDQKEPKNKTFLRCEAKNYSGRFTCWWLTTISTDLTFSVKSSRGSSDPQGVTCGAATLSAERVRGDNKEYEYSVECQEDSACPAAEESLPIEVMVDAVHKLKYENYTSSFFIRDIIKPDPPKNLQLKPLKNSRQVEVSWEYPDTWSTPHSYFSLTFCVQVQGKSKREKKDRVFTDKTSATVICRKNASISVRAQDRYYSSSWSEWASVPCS

[3] = molecular target: T3, "Elastikine" human IL-23 (single chain FLAG-tag:GLU-tag:human p40:elasti-linker:human p19, expressed in 293T … (human, UniProt P29460 23-328)); assay: cell-based or functional assay
[4] = molecular target: T2, non-tagged, non-linked native human …; assay: BIAcore SPR, antibody immobilised on CM5 chip, IL-23 in solution
Method: (§1) BIAcore determinations are performed essentially as described at Example 4 of U.S. Patent Application Publication No. 2007/0048315. Briefly, ligands (anti-IL-23 mAbs) are immobilized on a BIAcore CM5 sensor chip using standard amine-coupling procedure. IL-23 (various forms) is diluted in PBS to produce various concentrations. Kinetic constants for the various interactions are determined using BIAevaluation software 3.1. The Kd is determined using the calculated dissociation and association rate constants. In certain experiments, proteins are used at the following concentrations: anti-IL-23 mAb hu7G10 in PBS at 0.33 mg/mL; anti-IL-23 mAb hu6H12 in PBS at 0.2 mg/mL; bac-wt human IL-23 in PBS at 0.30 mg/mL; eBioscience human IL-23 in PBS at 0.10 mg/mL; N222Q human IL-23 in PBS at 0.33 mg/mL.

[5] = molecular target: T4, human IL-23 (form not stated) (human, UniProt P29460 23-328); assay: cell-based or functional assay
T4 sequence 1: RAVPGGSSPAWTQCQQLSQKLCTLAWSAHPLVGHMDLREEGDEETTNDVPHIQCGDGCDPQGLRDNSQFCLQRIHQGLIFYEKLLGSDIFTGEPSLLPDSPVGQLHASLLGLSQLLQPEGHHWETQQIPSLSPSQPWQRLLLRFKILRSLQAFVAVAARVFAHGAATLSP
T4 sequence 2: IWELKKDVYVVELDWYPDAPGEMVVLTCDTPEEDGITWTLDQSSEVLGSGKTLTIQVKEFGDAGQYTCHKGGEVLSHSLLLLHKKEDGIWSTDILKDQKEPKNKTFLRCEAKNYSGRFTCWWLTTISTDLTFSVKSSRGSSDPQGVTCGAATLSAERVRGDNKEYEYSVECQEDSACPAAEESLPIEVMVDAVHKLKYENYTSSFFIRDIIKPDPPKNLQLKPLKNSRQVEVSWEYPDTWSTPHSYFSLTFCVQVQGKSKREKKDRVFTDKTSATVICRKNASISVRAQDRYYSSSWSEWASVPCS

[6] = molecular target: T5, "N222Q" human IL-23 (elastikine sequence with Asn222 to Gln in the p40 subunit, expressed in SF9 cells) (human, UniProt P29460 23-328); assay: BIAcore SPR, antibody immobilised on CM5 chip, IL-23 in solution
T5 chain 1: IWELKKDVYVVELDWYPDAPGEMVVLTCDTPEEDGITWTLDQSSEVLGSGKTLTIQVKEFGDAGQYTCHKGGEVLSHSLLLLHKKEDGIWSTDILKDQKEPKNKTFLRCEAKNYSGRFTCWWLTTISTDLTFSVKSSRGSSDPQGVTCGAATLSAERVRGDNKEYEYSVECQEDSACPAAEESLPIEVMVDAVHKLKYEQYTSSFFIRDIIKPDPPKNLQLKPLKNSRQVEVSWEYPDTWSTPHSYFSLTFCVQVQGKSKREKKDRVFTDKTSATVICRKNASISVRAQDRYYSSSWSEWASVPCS
T5 chain 2: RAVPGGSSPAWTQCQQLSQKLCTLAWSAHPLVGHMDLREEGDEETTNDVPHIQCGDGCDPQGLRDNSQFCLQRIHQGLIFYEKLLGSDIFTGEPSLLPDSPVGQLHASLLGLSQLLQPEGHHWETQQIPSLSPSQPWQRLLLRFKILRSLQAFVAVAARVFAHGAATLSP
Method: as §1

[7] = molecular target: T3, "Elastikine" human IL-23 (single chain …); assay: KinExA, solution equilibrium
Method: (§2) The equilibrium dissociation constant (Kd) for anti human IL-23 antibodies is determined using the KinExA 3000 instrument. Sapidyne Instruments Inc., Boise Id., USA KinExA uses the principle of the Kinetic Exclusion Assay method based on measuring the concentration of uncomplexed antibody in a mixture of antibody, antigen and antibody-antigen complex. The concentration of free antibody is measured by exposing the mixture to a solid-phase immobilized antigen for a very brief period of time. In practice, this is accomplished by flowing the solution phase antigen-antibody mixture past antigen-coated particles trapped in a flow cell. Data generated by the instrument are analyzed using custom software. Equilibrium constants are calculated using a mathematical theory based on the following assumptions:
(§3) 98 micron PMMA particles (Sapidyne, Cat No. 440198) are coated with biotinylated rhIL-23 according to Sapidyne “Protocol for coating PMMA particles with biotinylated ligands having short or nonexistent linker arms”. To make biotinylated rhIL-23, EZ-link TFP PEO-biotin (Pierce, Cat. No. 21219) is used according to manufacturer's recommendations (Pierce bulletin 0874). Experimental procedures are done according to the KinExA 3000 manual.
(§4) KinExA experiments are performed essentially as described at Example 3 of U.S. Patent Application Publication No. 2007/0048315.

[8] = molecular target: T6, "Elastikine" human IL-23 (single chain FLAG-tag:GLU-tag:human p40:elasti-linker:human p19, expressed in 293T … (human, UniProt P29460 23-328)); assay: cell-based or functional assay; remark: listed apart in the source
[9] = molecular target: T1, "Non-linked" human IL-23 (human p40 …); assay: KinExA, solution equilibrium
Method: as §2, §3, §4

[10] = molecular target: T6, "Elastikine" human IL-23 (single chain …); assay: KinExA, solution equilibrium
Method: as §2, §3, §4

[11] = molecular target: T2, non-tagged, non-linked native human …; assay: KinExA, solution equilibrium
Method: as §2, §3, §4

B1: humanized anti-human IL-23p19 antibody 7G10 (antibody, human IgG1, kappa, V domains shown)
VH: QVQLVQSGAEVKKPGASVKVSCKASGYTFTSNVMHWVRQAPGQGLEWMGYINPYNDGTKYNEKFKGRVTMTTDTSTSTAYMELRSLRSDDTAVYYCARNWDVAYWGQGTLVTVSS
VL: DIQMTQSPSSLSASVGDRVTITCRASQSISDYLHWYQQKPGKAPKLLIYYASQSISGVPSRFSGSGSGTDFTLTISSLQPEDFATYYCQNGHSFPFTFGQGTKVEIKR
notes: Full-length humanized antibody, human IgG1 / kappa; also called hu7G10; hum7G10
IC50 (pM), blocking of Ba/F3 cell proliferation [1]: 10000 pM | IC50 (pM), blocking of Ba/F3 cell proliferation [2]: 7800 pM | IC50 (pM), blocking of Ba/F3 cell proliferation [3]: 29 pM | Kd [4]: 3.2 nM and 9 nM

B2: humanized antibody 17G8 with R98A substitution in the heavy chain of SEQ ID NO: 129 (antibody, V domains shown)
VH: QVQLVQSGAEVKKPGASVKVSCKASGYTFTSYGIKWVRQAPGQGLEWMGEIFPRSGQTIYNEKFKGRVTMTTDTSTSTAYMELRSLRSDDTAVYYCAANWDLDYWGQGTLVTVSS
VL: DIQMTQSPSSLSASVGDRVTITCRASQSISDYLHWYQQKPGKAPKLLIYYASQSISGVPSRFSGSGSGTDFTLTISSLQPEDFATYYCQNGHSFPYTFGQGTKVEIKR
fold decrease of IC50 in the Ba/F3 proliferation bioassay against the heavy chain of SEQ ID NO: 129 without R98A [5]: > 1000 fold

B3: humanized anti-human IL-23p19 antibody 6H12 (antibody, human IgG1, kappa, V domains shown)
VH: QVQLVQSGAEVKKPGASVKVSCKASGYTFNRYLIHWVRQAPGQGLEWMGYINPNNAGTNYNEKFKGRVTMTTDTSTSTAYMELRSLRSDDTAVYYCARNWDQAYWGQGTLVTVSS
VL: DIQMTQSPSSLSASVGDRVTITCRASQSISDYLHWYQQKPGKAPKLLIYYTSQSISGVPSRFSGSGSGTDFTLTISSLQPEDFATYYCQNGHSFPFTFGQGTKVEIKR
notes: Full-length humanized antibody, human IgG1 / kappa; also called hu6H12; hum6H12
IC50 (pM), blocking of Ba/F3 cell proliferation [1]: 4000 pM | IC50 (pM), blocking of Ba/F3 cell proliferation [2]: 3200 pM | IC50 (pM), blocking of Ba/F3 cell proliferation [3]: 27 pM | Kd [4]: 4.1 nM | Kd [6]: 0.5 nM | Kd [7]: 0.028 nM and 0.036 nM

B4: mouse anti-human IL-23p19 antibody 6H12 (antibody, V domains shown)
VH: EVHLQQSGPELVKPGASVKMSCKASGYTFNRYLIHWVKQKPGQGLEWIGYINPNNDGTNYNEKFKGKATLTSDKSSSTAYMELSSLTSEDSAVYYCAANWDQAYWGQGTLVTVSA
VL: DIVMTQSPATLSVTPGDRVSLSCRASQSISDYLHWYQQKSHESPRLLIKYTSQSISGIPSRFSGSGSGSDFTLSINSVEPEDVGVYYCQNGHSFPFTFGSGTKLEIKR
notes: also called m6H12
IC50 (pM), blocking of Ba/F3 cell proliferation [1]: 1500 pM | IC50 (pM), blocking of Ba/F3 cell proliferation [8]: 11 pM and 9 pM | IC50 (pM), blocking of Ba/F3 cell proliferation [2]: 1300 pM and 500 pM | Kd [9]: > 1.2 nM | Kd [10]: 0.054 nM and 0.048 nM | Kd [11]: > 1 nM

B5: mouse anti-human IL-23p19 antibody 13B5 (antibody, V domains shown)
VH: EVQLQQSGPELVKPGASVKMSCKASGYTFTRYLMHWVKQKPGQGLEWIGYINPYNDGTNYNEKFKGKATLTSDKSSSTAYMELSSLTSEDSAVYYCARNWDVGGYWGQGTTLTVSS
VL: DIVMTQSPATLSVTPGDRVSLSCRASQSISDYLHWYQQKSHESPRLLIKYASQSISGIPSRFSGSGSGSDFTLSINSVEPEDVGVYYCQNGHSFPFTFGSGTKLEIKR
notes: also called m13B5
IC50 (pM), blocking of Ba/F3 cell proliferation [1]: 113 pM | IC50 (pM), blocking of Ba/F3 cell proliferation [8]: 7 pM and 5 pM | IC50 (pM), blocking of Ba/F3 cell proliferation [2]: 31 pM | Kd [10]: 0.022 nM | Kd [11]: 0.055 nM

B6: mouse anti-human IL-23p19 antibody 39G2 (antibody, V domains shown)
VH: QVQLQQPGAELVRPGASVKLSCKASGYSFTSSWMNWVKQRPGQGLEWIGMIHPSDSETRTNQKFKDKATLTVDKSSSTAYMQLSSPTSEDSAVYYCARGMITAPTVYWGQGTLVTVSA
VL: DIVLTQSPASLAVSLGQRATISCRASKSVSTSAYSYFHWYQQKPGQPPKLLIYLASNLESGVPARFSGSGSGTDFTLNIHPVEEEDAATYYCQHSRELPWTFGGGTKLEITP
notes: also called m39G2
IC50 (pM), blocking of Ba/F3 cell proliferation [1]: 67 pM | IC50 (pM), blocking of Ba/F3 cell proliferation [8]: 9 pM and 5 pM | IC50 (pM), blocking of Ba/F3 cell proliferation [2]: 11 pM | Kd [9]: 0.034 nM | Kd [10]: 0.019 nM | Kd [11]: 0.62 nM

B7: mouse anti-human IL-23p19 antibody 35F12 (antibody, V domains shown)
VH: QVQLQQPGAELMRPGASVRLSCKASGYSFTTSWMNWVKQRPGQGLEWIGMIHPSDSETRLNQNFKDKATLTVDRSSSTAYMQLNSPTSEDSAVYYCARGMITAPSVYWGQGTLVTVSA
VL: DIVLTQSPASLAVSLGQRATISCRASKSVSTSAYSYFHWYQQKPGQPPKLLIYLASNLESGVPARFSGSGSGTDFTLNIHPVEEGDAATYYCQHSRELPWTFGGGTKLEITR
notes: also called m35F12
IC50 (pM), blocking of Ba/F3 cell proliferation [1]: 73 pM | IC50 (pM), blocking of Ba/F3 cell proliferation [8]: 15 pM and 5 pM | IC50 (pM), blocking of Ba/F3 cell proliferation [2]: 12 pM | Kd [10]: 0.053 nM | Kd [11]: > 0.7 nM
